Reference: patent publication EP4059514A1 (Xencor, Inc., dated 2022)

Assays:
human CD3 = human CD3 (human, UniProt P07766 23-126); assay: method not stated in the legend (Figure 142)
cyno CD3 = target: T1, cyno CD3 (cyno, UniProt Q95LI5 22-117); assay: method not stated in the legend (Figure 143)
T1 construct: also called cynomolgus monkey CD3
T1 sequence (looked up): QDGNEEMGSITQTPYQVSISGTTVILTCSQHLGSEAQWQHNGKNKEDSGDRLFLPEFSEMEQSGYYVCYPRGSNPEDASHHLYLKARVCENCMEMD

human CD3, sequence (P07766 23-126): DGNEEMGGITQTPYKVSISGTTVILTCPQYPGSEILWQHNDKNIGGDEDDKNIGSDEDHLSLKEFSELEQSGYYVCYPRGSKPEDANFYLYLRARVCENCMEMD

B1: XENP14045 (anti-CD123 x anti-CD3) bispecific (bispecific antibody)
chain 1: QVQLQQSGAEVKKPGASVKVSCKASGYTFTDYYMKWVKQSHGKSLEWMGDIIPSNGATFYNQKFKGKATLTVDRSTSTAYMELSSLRSEDTAVYYCARSHLLRASWFAYWGQGTLVTVSSASTKGPSVFPLAPSSKSTSGGTAALGCLVKDYFPEPVTVSWNSGALTSGVHTFPAVLQSSGLYSLSSVVTVPSSSLGTQTYICNVNHKPSDTKVDKKVEPKSCDKTHTCPPCPAPPVAGPSVFLFPPKPKDTLMISRTPEVTCVVVDVKHEDPEVKFNWYVDGVEVHNAKTKPREEEYNSTYRVVSVLTVLHQDWLNGKEYKCKVSNKALPAPIEKTISKAKGQPREPQVYTLPPSREEMTKNQVSLTCDVSGFYPSDIAVEWESDGQPENNYKTTPPVLDSDGSFFLYSKLTVDKSRWEQGDVFSCSVMHEALHNHYTQKSLSLSPGK
chain 2: not shown
chain 3: not shown
Question: With B1 as the binder, how does the Kd (human CD3) read?
Answer: The Kd was 8.1 nM.

Question: And the Kd (cyno CD3)?
Answer: Its Kd is 5.7 nM.
